Measured values: patent US20090209427A1, “Microbial glyphosate resistant epsps” (priority 2004, published 2009)

Test system: C=C(OP(=O)(O)O)C(=O)O
Assay: purified protein, by the assay type
Conditions: other: C. crescentus EPSPS, 50 mM K+-HEPES pH 7.0, 1 mM shikimate-3-phosphate, varying [14C]PEP

Q: For “Caulobacter crescentus EPSPS, native, SEQ ID NO: 9 (Caulobacter vibrioides CB15)”, which Km is on record?
A: The Km was 2.0 µM.
